Experiments:
[1] = molecular target: T1, MSMEG_3765 (TetR3765) (Mycobacterium smegmatis mc2155) (UniProt A0QYS0); test: EMSA; conditions: 40 mM HEPES pH 8.0, 150 mM NaCl, 20 mM MgCl2, 10% glycerol, 37 C, 20 min; 8% native PAGE, SYBR Safe
T1 sequence: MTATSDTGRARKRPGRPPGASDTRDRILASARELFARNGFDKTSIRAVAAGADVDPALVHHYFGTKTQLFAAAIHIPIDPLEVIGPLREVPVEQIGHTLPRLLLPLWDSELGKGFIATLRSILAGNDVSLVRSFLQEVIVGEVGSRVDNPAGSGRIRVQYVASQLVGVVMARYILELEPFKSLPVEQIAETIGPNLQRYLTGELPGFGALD

MSMEG_3765 (TetR3765) = molecular target: T2, MSMEG_3765 (TetR3765) (Mycobacterium smegmatis mc2155, UniProt A0QYS0 1-211); test: EMSA; 1.5-20 pmol protein; 40 mM HEPES pH 8.0, 150 mM NaCl, 20 mM MgCl2, 10% glycerol, 37 C, 20 min; 8% native PAGE, SYBR Safe; conditions: protein: recombinant; tags: C-terminal His (pET-22b(+), NdeI-XhoI); chain copies: 2
T2 sequence: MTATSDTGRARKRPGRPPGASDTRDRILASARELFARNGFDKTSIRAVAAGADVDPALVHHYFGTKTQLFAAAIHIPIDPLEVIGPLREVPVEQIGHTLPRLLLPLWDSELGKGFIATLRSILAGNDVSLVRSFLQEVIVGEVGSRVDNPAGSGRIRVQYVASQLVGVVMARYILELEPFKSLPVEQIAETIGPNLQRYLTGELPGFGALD

Q: For “CCGGATCCGACCTCGACCACCATCGCACGCACACCCCGTCCGGCAATAGTTGCGCCGAGCAGCCGATGCGCGGCCGCGACCGGGTCGATCGCCAGTTCCTCAGCGTTCATCAGAGACGATTGTGCACCGGCCCTTGACAAACCCGCACGACTGGCGGATATTCATCACATGATGATTTCATCAAGTGATGAATTACTTCGCGACGGTGGGGCCCG (double strand) [Rv1687c upstream fragment 200 bp]”, which binding [1] is on record?
A: binds

Q: With “CTGCTGGAGTCCGCCGCCTGAGCCAGGCGTCGCCGACGCCGAAATGTGTCGACGCATCGTCTTCCCACCGGACGACGGCAGGCCTAGAATTCATTGCATGATGACTTCATCGCGCGATGAATTGTCAGCGACGGGGCCCG (double strand) [fragment a 133 bp]” as the molecule, how does the binding [1] read?
A: binds

Q: For “CGGGATCCGATCCTGCGGGGCGCCGACGACCACACGCTGTCGCTGATCACCGAGTACGTCGACGTCGCACGGTTGCGGGCCGACATTATCGGCCTGCTGGAGTCCGCCGCCTGAGCCAGGCGTCGCCGACGCCGAAATGTGTCGACGCATCGTCTTCCCACCGGACGACGGCAGGCCTAGAATTCATTGC (double strand) [fragment b 182 bp]”, which binding [1] is on record?
A: no binding

Q: Which binding [1] does the source give for “CGGGATCCGATCCTGCGGGGCGCCGACGACCACACGCTGTCGCTGATCACCGAGTACGTCGACGTCGCACGGTTGCGGGCCGACATTATCGGCCTGCTGGAGTCCGCCGCCTGAGCCAGGCGTCGCCGACGCCGAAATGTGTCGACGCATCGTCTTCCCACCGGACGACGGCAGGCCTAGAATTCATTGCATGATGACTTCATCGCGCGATGAATTGTCAGCGACGGGGCCCG (double strand) [MSMEG_3762 upstream fragment 218 bp]” here?
A: binds

Q: How did the binding [1] turn out when “CGGGCCCGATCCACGCTGGCCATGGCATCGGTGGTCGGTTCGTCGCTCATGTCGTCAAGTTAGCTTGACGACATGAGCGGCGTCAAGAAAACTTGACACAAAAGGAACAGGCACAATCGCATCGATGAGCGTCGACCTGCTGACCGGTGATCCGATCGCCGCGGCACGTCGGCTGATCGGCGCCCACCTCGTCGGGCGGGACGTCACCGCCACGATCGTCGAGGTCGAGGCCTACGGCGGACCGCCGGACGGCCCGTGGCCGGACGCGGCGTCGCATTCGTTCCGGATCCCG (double strand) [MSMEG_3760 upstream fragment (from GFP assay) 277 bp]” was run?
A: no binding

Q: How did the binding [1] turn out when “CTGCTGGAGTCCGCCGCCTGAGCCAGGCGTCGCCGACGCCGAAATGTGTCGACGCATCGTCTTCCCACCGGACGACGGCAGGCCTAGAATTCATTGC (double strand) [fragment c 97 bp]” was run?
A: no binding

Q: Which binding [1] does the source give for “GACGCTCATCGATGCGATTGTGCCTGTTCCTTTTGTGTCAAGTTTTCTTGACGCCGCTCATGTCGTCAAGCTAACTTGACGACATGAGCGACGAACCGACCACCGATGCCATGGCCAGCGTGGATCGGGCCCG (double strand) [MSMEG_3760 upstream fragment 127 bp (negative control)]” here?
A: no binding

B1: fragment d 36 bp TetR motif (dsDNA)
DNA 1: AATTCATTGCATGATGACTTCATCGCGCGATGAATT
DNA 2: AATTCATCGCGCGATGAAGTCATCATGCAATGAATT
Q: Does B1 bind (MSMEG_3765 (TetR3765))?
A: binds

From publication PMC5660060
